Substitutions are numbered along the chain they refer to.

From patent US20210171647A1 (WUXI BIOLOGICS SHANGHAI, published 2021) come the findings set out here.

Common to all, as to experiment: ELISA, antibody coated, OX40-ECD.His mutant supernatant; relative to silent alanine substitutions;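 further: captured OX40 mutant protein detected with HRP-labelled anti-His antibody, absorbance read-out, scaled to the mean signal of control mutants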
A general note: An ELISA detects its analyte on a solid surface through an enzyme-linked reagent.

Assay [1] has as its target T1, human OX40-ECD.His S118A (human, UniProt P43489 29-214).
T1 construct: extracellular domain; not shown: C-terminal His-tag
T1 sequence (looked up): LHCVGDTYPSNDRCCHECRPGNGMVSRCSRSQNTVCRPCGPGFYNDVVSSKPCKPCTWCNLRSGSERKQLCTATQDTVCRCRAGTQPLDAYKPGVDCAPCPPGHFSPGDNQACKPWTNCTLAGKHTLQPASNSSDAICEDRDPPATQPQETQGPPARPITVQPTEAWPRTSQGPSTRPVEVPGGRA

Assay [2] addresses T2, human OX40-ECD.His Q60A (human, UniProt P43489 29-214).
T2 construct: extracellular domain; not shown: C-terminal His-tag
T2 sequence (looked up): T1 sequence (looked up) with Q32A, A90S

Assay [3] addresses T3, human OX40-ECD.His L89A (human, UniProt P43489 29-214).
T3 construct: extracellular domain; not shown: C-terminal His-tag
T3 sequence (looked up): T1 sequence (looked up) with L61A, A90S

Assay [4] has as its target T4, human OX40-ECD.His T148A (human, UniProt P43489 29-214).
T4 construct: extracellular domain; not shown: C-terminal His-tag
T4 sequence (looked up): T1 sequence (looked up) with A90S, T120A

In assay [5] the target is T5, human OX40-ECD.His V106A (human, UniProt P43489 29-214).
T5 construct: extracellular domain; not shown: C-terminal His-tag
T5 sequence (looked up): T1 sequence (looked up) with V78A, A90S

Assay [6] concerns the target T6, human OX40-ECD.His P135A (human, UniProt P43489 29-214).
T6 construct: extracellular domain; not shown: C-terminal His-tag
T6 sequence (looked up): T1 sequence (looked up) with A90S, P107A

Assay [7] concerns the target T7, human OX40-ECD.His K96A (human, UniProt P43489 29-214).
T7 construct: extracellular domain; not shown: C-terminal His-tag
T7 sequence (looked up): T1 sequence (looked up) with K68A, A90S

For assay [8], the target named is T8, human OX40-ECD.His P127A (human, UniProt P43489 29-214).
T8 construct: extracellular domain; not shown: C-terminal His-tag
T8 sequence (looked up): T1 sequence (looked up) with A90S, P99A

The target in assay [9] is T9, human OX40-ECD.His R110A (human, UniProt P43489 29-214).
T9 construct: extracellular domain; not shown: C-terminal His-tag
T9 sequence (looked up): T1 sequence (looked up) with R82A, A90S

Assay [10] concerns the target T10, human OX40-ECD.His R41A (human, UniProt P43489 29-214).
T10 construct: extracellular domain; not shown: C-terminal His-tag
T10 sequence (looked up): T1 sequence (looked up) with R13A, A90S

B1: 1.134.9-u1-IgG1L (antibody, V domains shown)
VH: QVQLQESGPGLVKPSGTLSLTCAVSGGSISSYNWWSWVRQPPGKGLEWIGEIYHGGNTNYNPSLKSRVTMSVDNSKNQFSLKLSSVTAADTAVYYCARAPGDWGGSPYFDFWGQGTLVTVSS
VL: SSELTQDPAVSVALGQTVRITCQGDNLRTYYASWYQQKPGQAPILLIYGRNKRPSGIPDRFSGSSSGNTASLTITGAQAEDEAAYYCNSRDSSGNPVVFGGGTKLTVL
notes: fully human IgG1, lambda
For B1, the “Fold Change” value in assay [1] was 0.969; in [2] it was 0.971; in assay [3], 0.992; in assay [4], 1; in assay [5], 0.662; in assay [6], 0.899. Moreover, the “Fold Change” value in assay [7] is 0.949; in assay [8] it was 0.953; in assay [9], 0.955; in assay [10] it was 0.958.
